Sequences and labels used below:
B1: TET3 peptide 1705-1720 (methylcytosine dioxygenase TET3), 16-mer library wild type / USP8 rhodanese domain (ubiquitin carboxyl-terminal hydrolase 8, residues 174-317) (parent)
chain 1: GLALWEAKMKQLAERA
chain 2: KCETKEKGAITAKELYTMMTDKNISLIIMDARRMQDYQDSCILHSLSVPEEAISPGVTASWIEAHLPDDSKDTWKKRGNVEYVVLLDWFSSAKDLQIGTTLRSLKDALFKWESKTVLRNEPLVLEGGYENWLLCYPQYTTNAKV
B2: KIAA1614 peptide 568-583 (uncharacterized protein KIAA1614), 16-mer library wild type / USP8 rhodanese domain (ubiquitin carboxyl-terminal hydrolase 8, residues 174-317) (parent)
chain 1: GMERVLGGLSSPLRLL
chain 2: B1 chain 2

Here are results for 94 variants from PMC12057046, “Elucidation of short linear motif-based interactions of the MIT and rhodanese domains of the ubiquitin-specific protease 8” (Biology Direct, 2025).

One experiment covers variants of B1. Description: peptide-phage display deep mutational scan (M13, 16-mer library, displayed with a C-terminal GGGSG linker encoded by the 3' flank) selected against the GST-tagged USP8 rhodanese domain, four rounds; NGS counts summed over selection …. The conditions noted are these: with USP8 rhodanese domain (ubiquitin carboxyl-terminal hydrolase 8, residues 174-317), 10 µg GST-bait on MaxiSorp, pre-cleared on GST, 2 h at 4 °C, five washes with 0.05% Tween 20 in PBS, not graded, scale: average over two replicas of the peptide's fractional NGS count.
Turning to chain 1 GLALPEAKMKQLAERA [chain 1 W5P], the screen value was found to be 4.33e-05.
In the case of chain 1 GLALLEAKMKQLAERA [chain 1 W5L], the screen value was 1.15e-05.
chain 1 GLALSEAKMKQLAERA [chain 1 W5S]: the screen value was determined as 7.78e-05.
The same measure, in the same setting: next, chain 1 GLALMEAKMKQLAERA [chain 1 W5M]: 0.00029; chain 1 GLALGEAKMKQLAERA [chain 1 W5G]: 7.36e-05; chain 1 GLALVEAKMKQLAERA [chain 1 W5V]: 4.33e-06.
As for chain 1 GLALKEAKMKQLAERA [chain 1 W5K], the screen value stood at 8.66e-06.
As to chain 1 GLALFEAKMKQLAERA [chain 1 W5F], the screen value stood at 4.33e-06.
Still for that read-out and setting: next, chain 1 GLALREAKMKQLAERA [chain 1 W5R]: 1.58e-05; chain 1 GLALHEAKMKQLAERA [chain 1 W5H]: 4.33e-06.
Still for that read-out and setting: next, chain 1 GLALTEAKMKQLAERA [chain 1 W5T]: 4.33e-06; chain 1 GLALWEAKMKSLAERA [chain 1 Q11S]: 0.00344.
Regarding chain 1 GLALWEAKMKKLAERA [chain 1 Q11K], the screen value stood at 1.15e-05.
The same measure, in the same setting: for chain 1 GLALWEAKMKLLAERA [chain 1 Q11L] the value was 0.0108.
For the variant chain 1 GLALWEAKMKYLAERA [chain 1 Q11Y], the screen value amounted to 8.66e-05.
Same read-out and setting: next, chain 1 GLALWEAKMKTLAERA [chain 1 Q11T]: 0.000142; chain 1 GLALWEAKMKRLAERA [chain 1 Q11R]: 0.000162.
Turning to chain 1 GLALWEAKMKMLAERA [chain 1 Q11M], the screen value was determined as 0.000201.
On the same count and under the same terms, next, chain 1 GLALWEAKMKVLAERA [chain 1 Q11V]: 8.66e-06; chain 1 GLALWEAKMKNLAERA [chain 1 Q11N]: 0.00283; chain 1 GLALWEAKMKWLAERA [chain 1 Q11W]: 2.17e-05.
The same measure, in the same setting: for chain 1 GLALWEAKMKQLAEKA [chain 1 R15K] the value was 0.000386; for chain 1 GLALWEAKMKQLAEAA [chain 1 R15A], 4.33e-06.
Still for that read-out and setting: next, chain 1 GLALWEAKMKQLAEHA [chain 1 R15H]: 0.000187.
Regarding chain 1 GLALWEAKMKQLAEEA [chain 1 R15E], the screen value is 0.00031.
As for chain 1 GLALWEAKMKQLAEGA [chain 1 R15G], the screen value came to 0.000816.
Still for that read-out and setting: next, chain 1 GLALWEAKMKQLAEQA [chain 1 R15Q]: 0.0216; chain 1 GLALWEAKMKQLAEMA [chain 1 R15M]: 0.000392; chain 1 GLALWEAKMKQLAEWA [chain 1 R15W]: 0.000125.
The same measure, in the same setting: for chain 1 GLALWEAKMKQLAEYA [chain 1 R15Y] the value was 0.0485; for chain 1 GLALWEAKMKQLAEFA [chain 1 R15F], 2.3e-05; for chain 1 GLALWEAKMKQLAEPA [chain 1 R15P], 0.0867.
On the same count and under the same terms, for chain 1 GLALWEAKMKQLAELA [chain 1 R15L] the value was 0.000427.
As for chain 1 GLALWEAKMKQLAEDA [chain 1 R15D], the screen value amounted to 7.21e-05.
Consider chain 1 GLALWEAKMKQLAEVA [chain 1 R15V], for which the screen value was 2.45e-05.
On the same count and under the same terms, for chain 1 GLALWEAKMKQLAESA [chain 1 R15S] the value was 0.0149; for chain 1 GLALWEAKMKQLAETA [chain 1 R15T], 0.00935.
For chain 1 GLALWEAKMKQLAENA [chain 1 R15N], the screen value is 8.62e-05.

Another experiment covers variants of B2. Described as above. The conditions noted are these: with USP8 rhodanese domain (ubiquitin carboxyl-terminal hydrolase 8, residues 174-317), 10 µg GST-bait on MaxiSorp, pre-cleared on GST, 2 h at 4 °C, five washes with 0.05% Tween 20 in PBS, not graded, scale: average over two replicas of the peptide's fractional NGS count.
Regarding chain 1 AMERVLGGLSSPLRLL [chain 1 G1A], the screen value stood at 0.0197.
Same read-out and setting: for chain 1 SMERVLGGLSSPLRLL [chain 1 G1S] the value was 0.00457.
Still for that read-out and setting: for chain 1 QMERVLGGLSSPLRLL [chain 1 G1Q] the value was 0.0088; for chain 1 KMERVLGGLSSPLRLL [chain 1 G1K], 0.000202; for chain 1 MMERVLGGLSSPLRLL [chain 1 G1M], 0.000324.
On the same count and under the same terms, next, chain 1 LMERVLGGLSSPLRLL [chain 1 G1L]: 3.16e-05; chain 1 YMERVLGGLSSPLRLL [chain 1 G1Y]: 0.000202; chain 1 IMERVLGGLSSPLRLL [chain 1 G1I]: 8.36e-05.
On to chain 1 TMERVLGGLSSPLRLL [chain 1 G1T], for which the screen value amounted to 0.00523.
Still for that read-out and setting: for chain 1 HMERVLGGLSSPLRLL [chain 1 G1H] the value was 0.00494; for chain 1 FMERVLGGLSSPLRLL [chain 1 G1F], 6.32e-06.
On to chain 1 WMERVLGGLSSPLRLL [chain 1 G1W], for which the screen value came out at 0.00137.
Still for that read-out and setting: next, chain 1 PMERVLGGLSSPLRLL [chain 1 G1P]: 0.00104; chain 1 EMERVLGGLSSPLRLL [chain 1 G1E]: 0.000708; chain 1 VMERVLGGLSSPLRLL [chain 1 G1V]: 3.79e-05.
Consider chain 1 DMERVLGGLSSPLRLL [chain 1 G1D], for which the screen value worked out at 0.00131.
Same read-out and setting: next, chain 1 RMERVLGGLSSPLRLL [chain 1 G1R]: 0.000532; chain 1 NMERVLGGLSSPLRLL [chain 1 G1N]: 0.0012.
On the same count and under the same terms, for chain 1 GIERVLGGLSSPLRLL [chain 1 M2I] the value was 0.00918; for chain 1 GRERVLGGLSSPLRLL [chain 1 M2R], 0.00145.
On the same count and under the same terms, next, chain 1 GVERVLGGLSSPLRLL [chain 1 M2V]: 0.0166.
In the case of chain 1 GQERVLGGLSSPLRLL [chain 1 M2Q], the screen value was 0.00237.
On the same count and under the same terms, for chain 1 GTERVLGGLSSPLRLL [chain 1 M2T] the value was 0.0119.
As for chain 1 GGERVLGGLSSPLRLL [chain 1 M2G], the screen value was found to be 0.0456.
On to chain 1 GYERVLGGLSSPLRLL [chain 1 M2Y], for which the screen value stood at 0.00188.
For the variant chain 1 GLERVLGGLSSPLRLL [chain 1 M2L], the screen value is 0.00111.
Regarding chain 1 GWERVLGGLSSPLRLL [chain 1 M2W], the screen value amounted to 0.000604.
chain 1 GEERVLGGLSSPLRLL [chain 1 M2E]: the screen value stood at 0.0668.
As to chain 1 GPERVLGGLSSPLRLL [chain 1 M2P], the screen value came to 0.0198.
For the variant chain 1 GNERVLGGLSSPLRLL [chain 1 M2N], the screen value turned out to be 0.00694.
Regarding chain 1 GAERVLGGLSSPLRLL [chain 1 M2A], the screen value came to 0.00538.
Regarding chain 1 GKERVLGGLSSPLRLL [chain 1 M2K], the screen value came to 0.00296.
In the case of chain 1 GSERVLGGLSSPLRLL [chain 1 M2S], the screen value was 0.00782.
For the variant chain 1 GHERVLGGLSSPLRLL [chain 1 M2H], the screen value turned out to be 0.0157.
Still for that read-out and setting: next, chain 1 GFERVLGGLSSPLRLL [chain 1 M2F]: 0.00131; chain 1 GDERVLGGLSSPLRLL [chain 1 M2D]: 0.0101; chain 1 GMDRVLGGLSSPLRLL [chain 1 E3D]: 0.00356.
Still for that read-out and setting: next, chain 1 GMSRVLGGLSSPLRLL [chain 1 E3S]: 0.000223; chain 1 GMFRVLGGLSSPLRLL [chain 1 E3F]: 6.32e-06; chain 1 GMLRVLGGLSSPLRLL [chain 1 E3L]: 6.32e-05.
chain 1 GMHRVLGGLSSPLRLL [chain 1 E3H]: the screen value worked out at 0.00012.
As to chain 1 GMTRVLGGLSSPLRLL [chain 1 E3T], the screen value came to 8.85e-05.
Still for that read-out and setting: next, chain 1 GMNRVLGGLSSPLRLL [chain 1 E3N]: 0.000897; chain 1 GMWRVLGGLSSPLRLL [chain 1 E3W]: 0.000133.
On to chain 1 GMQRVLGGLSSPLRLL [chain 1 E3Q], for which the screen value was 0.00108.
The same measure, in the same setting: for chain 1 GMARVLGGLSSPLRLL [chain 1 E3A] the value was 0.000229; for chain 1 GMYRVLGGLSSPLRLL [chain 1 E3Y], 0.000118; for chain 1 GMVRVLGGLSSPLRLL [chain 1 E3V], 1.26e-05.
As to chain 1 GMPRVLGGLSSPLRLL [chain 1 E3P], the screen value amounted to 9.48e-05.
Same read-out and setting: next, chain 1 GMERVLGGLSSPLELL [chain 1 R14E]: 1.9e-05; chain 1 GMERVLGGLSSPLKLL [chain 1 R14K]: 0.000355.
The same measure, in the same setting: for chain 1 GMERVLGGLSSPLNLL [chain 1 R14N] the value was 5.27e-05; for chain 1 GMERVLGGLSSPLLLL [chain 1 R14L], 0.000793.
As to chain 1 GMERVLGGLSSPLALL [chain 1 R14A], the screen value amounted to 0.00719.
Same read-out and setting: for chain 1 GMERVLGGLSSPLILL [chain 1 R14I] the value was 0.00646.
In the case of chain 1 GMERVLGGLSSPLMLL [chain 1 R14M], the screen value amounted to 0.0219.
